Experimental data taken from article doi:10.1101/2020.06.08.141267 (bioRxiv, 2020).

Target: T1, receptor-binding domain (RBD) of the SARS-CoV-2 spike (S) protein (SARS-CoV-2, UniProt P0DTC2)
T1 construct: not shown: His6, C-terminal, kept
Assay: BLI
Conditions: both partners purified

B1: CC12.1 Fab (Fab, V domains shown)
VH: EVQLVESGGGLIQPGGSLRLSCAASGLTVSSNYMSWVRQAPGKGLEWVSVIYSGGSTFYADSVKGRFTISRDNSKNTLYLQMNSLRAEDTAVYYCARDLDVYGLDVWGQGTTVTVSS
VL: DIVMTQSPSFLSASVGDRVTITCRASQGISSYLAWYQQKPGKAPKLLIYAASTLQSGVPSRFSGSGSGTEFTLTISSLQPEDFATYYCQQLNSYPPKFTFGPGTKVEIK
notes: also called Fab CC12.1
For B1, which Kd is on record?
Its Kd is 17 nM.
